# Where two headings read alike, the source gives them in different places.
# Assays:
# serum albumin = conditions: cited from earlier work
# [1] = PET/CT imaging of BxPC-3 tumor-bearing mice; assay type: in vivo; conditions: athymic nude, mouse, iv, 3.7 MBq, total radioactivity
# Experimental: For blocking study, excess of unlabeled peptides was administered 1–2 min before radiotracer injection. The PET scans were acquired for 20 min on an Inveon small animal PET/CT scanner (Siemens Medical Solutions, Malvern, PA, USA). Static images were reconstructed with the maximum a posteriori (MAP) reconstruction algorithm and corrected for decay. Image analysis was performed using the Inveon Research Workstation image display software (Siemens). Regions of interest (ROI) were selected based on co-registered anatomical CT images, and the average or maximum standard uptake value (SUV) was calculated as the mean or maximum regional radioactivity concentration (nCi/cc) x animal weight (g)/decay-corrected amount of injected dose (nCi).
# [2] = Biodistribution in normal CD-1 mice; assay type: in vivo; conditions: mouse, iv, total radioactivity, 0.37 MBq i.v., n = 4–5, mean ± SD
# Experimental: The comparison of non-albumin binding and albumin binding peptides were evaluated in CD-1 mice at 1, 4, 24, and 48 h. ^177Lu-labeled peptides were prepared at the specific activity of 10 MBq/nmol. Mice (n = 4–5) were intravenously injected with 0.37 MBq (10 µCi) of respective radioligands diluted in 100 μL saline and sacrificed at specified time points. Selected organs were collected, weighed, and counted for activity. The results were reported as the percentage of the injected radioactivity per gram of tissue mass (% ID/g) and the radioactivity was calibrated using a known standard.
# [3] = Biodistribution in mice bearing BxPC-3 tumor xenografts; assay type: in vivo; conditions: athymic nude, mouse, iv, total radioactivity, BxPC-3 tumor mice, 0.37 MBq i.v.; for tissue uptake at 1 h: 1 h p.i.; for tissue uptake at 48 h: 48 h p.i.
# Experimental: Animals were supplied from Charles River Laboratories (Wilmington, MA, USA), and were handled in compliance with the Guidelines for Care and Use of Research Animals established by the Division of Comparative Medicine and the Animal Studies Committee of Washington University School of Medicine. Biodistribution studies were conducted in athymic nude mice bearing subcutaneous BxPC-3 tumors. Tumors were implanted on the right flank with 5 × 10^6 cells about 4 weeks before the performance of the experiments. Biodistribution studies were performed when the tumors reached approximately 5–7 mm in diameter. […] Tissues of interest (blood, lung, liver, spleen, kidney, muscle, heart, bone, and tumor) were collected and weighed, and the radioactivity was measured using a gamma counter. The results were expressed as the percentage of injected dose per gram of tissue (%ID/g).
# BxPC-3 tumors = experiment: Therapy studies in BxPC-3 tumor-bearing mice; assay type: in vivo, athymic nude mice
# Experimental: Therapy studies were conducted in athymic nude mice bearing BxPC-3 tumors when the tumor volume reached about 100 mm^3. […] Tumor volumes and body weights were monitored three times a week. Individual tumor size was calculated using the formula (length × width × width)/2. The mice were euthanized when the tumor reached 1500 mm^3, ulceration of >4 mm was present, or significant stress due to weight loss. […] The doses were administered via tail vein and tumor size and mouse weights were recorded three times a week. Tumor volumes were plotted versus time to determine tumor growth inhibition.
# DX3puroβ6 tumor = conditions: mouse, in vivo; cited from earlier work
# [4] = blood, n = 4–5, mean ± SD, read-out: blood uptake
# [5] = n = 4–5, mean ± SD, read-out: tumor uptake
molecule,measurement,setting,value
O=C(O)CCCc1ccc(I)cc1 [4-(p-iodophenyl)butyric acid],non-covalent binding with serum albumin,serum albumin,micromolar range
Cc1cc(-c2ccc(/N=N/c3ccc4c(S(=O)(=O)O)cc(S(=O)(=O)O)c(N)c4c3O)c(C)c2)ccc1/N=N/c1ccc2c(S(=O)(=O)O)cc(S(=O)(=O)O)c(N)c2c1O [Evans Blue],IC50 of reversible binding to serum albumin,serum albumin,micromolar range
"CC(C)C[C@H](NC(=O)[C@H](CC(=O)O)NC(=O)CNC(=O)[C@H](CCCNC(=N)N)NC(=O)[C@H](CC(C)C)NC(=O)[C@H](CC(N)=O)NC(=O)[C@@H]1CCCN1C(=O)[C@@H](NC(=O)[C@H](C)NC(=O)[C@H](CC(N)=O)NC(=O)CCOCCOCCOCCOCCOCCOCCOCCOCCOCCOCCOCCOCCOCCOCCOCCOCCOCCOCCOCCOCCOCCOCCOCCOCCOCCOCCOCCOCCNC(=O)CN1CCN(CC(=O)O)CCN(CC(=O)O)CCN(CC(=O)O)CC1)C(C)C)C(=O)N[C@@H](CCC(N)=O)C(=O)N[C@H](C(=O)N[C@@H](CC(C)C)C(=O)N[C@@H](C)C(=O)N[C@@H](CCC(N)=O)C(=O)N[C@@H](CCCCN)C(=O)N[C@H](C(=O)N[C@@H](C)C(=O)N[C@@H](CCCNC(=N)N)C(=O)N[C@H](C(=O)NCCOCCOCCOCCOCCOCCOCCOCCOCCOCCOCCOCCOCCOCCOCCOCCOCCOCCOCCOCCOCCOCCOCCOCCOCCOCCOCCOCCOCCC(N)=O)[C@@H](C)O)C(C)C)C(C)C [[^68Ga]Ga-DOTA-(PEG28)2-A20FMDV2, metal not drawn]",SUV at 1 h,"[1]; mice receiving blocking agent (excess unlabeled peptide 1–2 min before), 1 h after 3.7 MBq i.v., n = 3, read-out: tumor SUVmax",1.71 ± 0.04 SUV
same,SUV at 1 h,"[1]; mice receiving blocking agent (excess unlabeled peptide 1–2 min before), 1 h after 3.7 MBq i.v., n = 3, read-out: tumor SUVmean",1.22 ± 0.12 SUV
same,SUV at 1 h,"[1]; non-block mice, 1 h after i.v. injection of 3.7 MBq, n = 3, read-out: tumor SUVmax",3.85 ± 1.06 SUV
same,SUV at 1 h,"[1]; non-block mice, 1 h after i.v. injection of 3.7 MBq, n = 3, read-out: tumor SUVmean",2.77 ± 0.38 SUV
"CC(C)C[C@H](NC(=O)[C@H](CC(=O)O)NC(=O)CNC(=O)[C@H](CCCNC(=N)N)NC(=O)[C@H](CC(C)C)NC(=O)[C@H](CC(N)=O)NC(=O)[C@@H]1CCCN1C(=O)[C@@H](NC(=O)[C@H](C)NC(=O)[C@H](CC(N)=O)NC(=O)CCOCCOCCOCCOCCOCCOCCOCCOCCOCCOCCOCCOCCOCCOCCOCCOCCOCCOCCOCCOCCOCCOCCOCCOCCOCCOCCOCCOCCNC(=O)CCSC1CC(=O)N(CCC(=O)NCCNC(=O)[C@H](CCCCNC(=O)CN2CCN(CC(=O)O)CCN(CC(=O)O)CCN(CC(=O)O)CC2)NC(=O)c2ccc(-c3ccc(N=Nc4ccc5c(S(=O)(=O)O)cc(S(=O)(=O)O)c(N)c5c4O)cc3)cc2)C1=O)C(C)C)C(=O)N[C@@H](CCC(N)=O)C(=O)N[C@H](C(=O)N[C@@H](CC(C)C)C(=O)N[C@@H](C)C(=O)N[C@@H](CCC(N)=O)C(=O)N[C@@H](CCCCN)C(=O)N[C@H](C(=O)N[C@@H](C)C(=O)N[C@@H](CCCNC(=N)N)C(=O)N[C@H](C(=O)NCCOCCOCCOCCOCCOCCOCCOCCOCCOCCOCCOCCOCCOCCOCCOCCOCCOCCOCCOCCOCCOCCOCCOCCOCCOCCOCCOCCOCCC(N)=O)[C@@H](C)O)C(C)C)C(C)C (stereo partly shown) [[^177Lu]Lu-EB-DOTA-(PEG28)2-A20FMDV2, metal not drawn]",tissue uptake at 1 h,[2]; blood,5.36 ± 1.06 %ID/g
same,tissue uptake at 48 h,"[2]; blood, 48 h p.i., read-out: blood uptake",0.41 ± 0.03 %ID/g
same,tissue uptake at 48 h,"[2]; kidney, 48 h, read-out: kidney uptake",44.3 ± 5.13 %ID/g
same,tissue uptake at 1 h,[3]; [4],4.8 ± 0.69 %ID/g
same,tissue uptake at 4 h,"[3]; blood, 4 h, n = 4–5, mean ± SD",1.23 ± 0.3 %ID/g
same,tissue uptake at 48 h,[3]; [4],0.28 ± 0.01 %ID/g
same,tissue uptake at 1 h,[3]; [5],5.2 ± 1.02 %ID/g
same,tissue uptake at 48 h,[3]; [5],4.29 ± 0.78 %ID/g
same,tissue uptake,"[3]; lung, liver, spleen, muscle, heart, bone, all time points (1, 4, 24, 48 h), read-out: uptake in normal organs such as lung, liver, spleen, muscle, heart, and bone",< 4 %ID/g
same,tumor volumes in comparison to the control group,"BxPC-3 tumors; single dose of 37 MBq, BxPC-3 tumor-bearing mice, n = 8, p < 0.001",significantly reduced
same,mortality,"BxPC-3 tumors; single dose of 37 MBq, two weeks after radiotracer injection",death of all mice
same,% intact in human serum,,> 90%
CC(C)C[C@H](NC(=O)[C@H](CC(=O)O)NC(=O)CNC(=O)[C@H](CCCNC(=N)N)NC(=O)[C@H](CC(C)C)NC(=O)[C@H](CC(N)=O)NC(=O)[C@@H]1CCCN1C(=O)[C@@H](NC(=O)[C@H](C)NC(=O)[C@H](CC(N)=O)NC(=O)CCOCCOCCOCCOCCOCCOCCOCCOCCOCCOCCOCCOCCOCCOCCOCCOCCOCCOCCOCCOCCOCCOCCOCCOCCOCCOCCOCCOCCNC(=O)CN1CCN(CC(=O)O)CCN(CC(=O)O)CCN(CC(=O)O)CC1)C(C)C)C(=O)N[C@@H](CCC(N)=O)C(=O)N[C@H](C(=O)N[C@@H](CC(C)C)C(=O)N[C@@H](C)C(=O)N[C@@H](CCC(N)=O)C(=O)N[C@@H](CCCCN)C(=O)N[C@H](C(=O)N[C@@H](C)C(=O)N[C@@H](CCCNC(=N)N)C(=O)N[C@H](C(=O)NCCOCCOCCOCCOCCOCCOCCOCCOCCOCCOCCOCCOCCOCCOCCOCCOCCOCCOCCOCCOCCOCCOCCOCCOCCOCCOCCOCCOCCC(N)=O)[C@@H](C)O)C(C)C)C(C)C [metal not drawn],tissue uptake at 1 h,[2]; blood,0.11 ± 0.04 %ID/g
same,body weight change,"BxPC-3 tumors; 27.8 MBq, n = 8, during the course of the study",no significant weight loss
same,tumor inhibition in comparison to control group,"BxPC-3 tumors; 27.8 MBq, n = 8, until day 23 (p < 0.001 for the IBA peptide)",did not show significant tumor growth inhibition
NAVPNLRGDLQVLAQKVART [A20FMDV2],tumor uptake,DX3puroβ6 tumor,0.66 ± 0.09 % ID/g
